Results: PMC2526197

How the values were obtained:
[1] = target: Evasin-3 (HEK) (Rhipicephalus sanguineus) (UniProt P0C8E8); experiment: SPR
Sequence of Evasin-3 (HEK) (Rhipicephalus sanguineus) (P0C8E8 21-86): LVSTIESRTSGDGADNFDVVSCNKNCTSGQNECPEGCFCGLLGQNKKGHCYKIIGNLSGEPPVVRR

Sequence of Evasin-3 (E. coli) (P0C8E8 21-86): as above

Row | Substance | Kd [1] [nM] | IC50 of inhibition of CXCL8-induced chemotaxis of neutrophils in vitro (CXCL8 (human)) [nM]
1 | CXCL8 (ligand) | 0.7 | 
2 | Evasin-3 (E. coli) (from UniProt P0C8E8 21-86) (natural protein) |  | 3.35
